From patent publication US20060172958A1 (published 2006) come the findings set out here.

Assay [1] has as its target T1, yeast two-hybrid library clone encoding amino acids 103-277 of phospholipid scramblase 3 (human, UniProt Q9NRY6 103-277).
T1 construct: also called PLS3 clone; cDNA cloned from the yeast two-hybrid screen; not shown: fusion partner of the Clontech MatchMaker human liver library vector
The assay is described as follows: yeast two-hybrid.

For assay [2], the target named is c-abl kinase (UniProt P00519 1-1130, limits assumed). The assay is described as follows: co-immunoprecipitation with PLS3 antibody, Western blot with c-abl antibody. On the technique in general: A western blot detects proteins with antibodies after separation by electrophoresis.
Sequence of c-abl kinase (P00519 whole entry): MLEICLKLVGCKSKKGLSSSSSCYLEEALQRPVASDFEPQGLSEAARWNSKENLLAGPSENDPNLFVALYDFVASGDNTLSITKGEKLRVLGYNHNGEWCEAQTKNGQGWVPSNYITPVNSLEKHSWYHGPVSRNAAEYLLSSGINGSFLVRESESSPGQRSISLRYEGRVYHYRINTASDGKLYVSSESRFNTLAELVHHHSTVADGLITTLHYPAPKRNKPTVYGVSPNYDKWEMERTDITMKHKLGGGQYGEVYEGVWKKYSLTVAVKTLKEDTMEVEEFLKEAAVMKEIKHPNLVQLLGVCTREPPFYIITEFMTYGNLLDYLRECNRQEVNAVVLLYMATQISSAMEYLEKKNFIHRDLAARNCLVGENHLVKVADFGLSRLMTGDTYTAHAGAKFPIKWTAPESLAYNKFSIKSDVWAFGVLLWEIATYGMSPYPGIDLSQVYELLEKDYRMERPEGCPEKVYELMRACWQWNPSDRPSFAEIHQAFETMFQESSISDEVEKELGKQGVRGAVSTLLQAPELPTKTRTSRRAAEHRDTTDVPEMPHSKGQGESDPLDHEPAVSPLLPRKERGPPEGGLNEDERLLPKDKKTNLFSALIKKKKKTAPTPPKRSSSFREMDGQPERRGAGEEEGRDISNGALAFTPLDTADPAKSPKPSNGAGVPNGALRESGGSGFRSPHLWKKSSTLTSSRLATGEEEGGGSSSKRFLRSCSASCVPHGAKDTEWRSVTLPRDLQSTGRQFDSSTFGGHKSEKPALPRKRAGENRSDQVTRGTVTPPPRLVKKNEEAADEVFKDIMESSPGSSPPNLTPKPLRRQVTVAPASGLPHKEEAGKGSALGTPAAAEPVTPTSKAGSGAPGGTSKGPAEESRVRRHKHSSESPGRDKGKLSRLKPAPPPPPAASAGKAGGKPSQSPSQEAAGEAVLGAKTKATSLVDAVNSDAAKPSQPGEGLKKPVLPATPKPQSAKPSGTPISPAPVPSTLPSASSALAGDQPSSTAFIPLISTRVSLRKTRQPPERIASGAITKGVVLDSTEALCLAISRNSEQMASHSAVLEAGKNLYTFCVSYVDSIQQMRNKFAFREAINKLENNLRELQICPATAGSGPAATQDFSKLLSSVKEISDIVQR

T1 sequence (Q9NRY6 103-277): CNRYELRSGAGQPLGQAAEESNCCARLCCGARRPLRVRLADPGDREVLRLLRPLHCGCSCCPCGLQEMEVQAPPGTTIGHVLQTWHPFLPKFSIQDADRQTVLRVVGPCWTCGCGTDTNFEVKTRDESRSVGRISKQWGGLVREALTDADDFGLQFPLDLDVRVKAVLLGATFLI

B1: lamin C control bait (pAS2-lamin C) (other, UniProt P02545-2 66-230, looked up)
chain: SEEVVSREVSGIKAAYEAELGDARKTLDSVAKERARLQLELSKVREEFKELKARNTKKEGDLIAAQARLKDLEALLNSKEAALSTALSEKRTLEGELHDLRGQVAKLEAALGEAKKQLQDEMLRRVDAENRLQTMKEELDFQKNIYSEELRETKRRHETRLVEID
notes: also called control bait lamin C; not shown: bait fusion partner encoded by the pAS2 vector
For B1, in assay [1], the binding result is on record as “no binding”.

B2: phospholipid scramblase 3 (PLS3), human, isoform not stated (enzyme)
chain: not shown
modifications: phosphothreonine, position not stated (shown by the anti-PT blot of immunoprecipitated PLS3)
notes: also called endogenous PLS3; wild-type PLS3
In the case of B2, in assay [2], the binding result is “no binding”.
